{
  "source": "patent US20110098217A1",
  "about": "(INDIANA UNIVERSITY RESEARCH AND TECHNOLOGY, published 2011)",
  "key": {"[1]": {"biological_target": "T1, human glucagon receptor (human, UniProt P47871 26-477)", "T1 sequence (P47871 26-477)": "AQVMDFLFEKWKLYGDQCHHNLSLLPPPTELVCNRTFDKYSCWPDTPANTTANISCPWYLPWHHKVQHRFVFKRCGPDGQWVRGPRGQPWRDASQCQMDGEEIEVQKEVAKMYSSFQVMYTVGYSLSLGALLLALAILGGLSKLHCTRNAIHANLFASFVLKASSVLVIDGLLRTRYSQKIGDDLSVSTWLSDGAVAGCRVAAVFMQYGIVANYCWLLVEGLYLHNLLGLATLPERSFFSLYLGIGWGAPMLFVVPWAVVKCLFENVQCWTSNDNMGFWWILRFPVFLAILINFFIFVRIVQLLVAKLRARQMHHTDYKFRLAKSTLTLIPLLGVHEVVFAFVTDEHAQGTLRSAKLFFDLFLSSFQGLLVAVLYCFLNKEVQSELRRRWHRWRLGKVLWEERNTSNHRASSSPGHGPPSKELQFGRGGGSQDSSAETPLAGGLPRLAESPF", "assay": "cell-based or functional assay"}, "[2]": {"biological_target": "T2, human GLP-1 receptor (human, UniProt P43220 24-463)", "assay": "cell-based or functional assay"}, "[3]": {"biological_target": "T1, human glucagon receptor", "assay": "cell-based or functional assay", "remark": "listed apart in the source"}, "[4]": {"biological_target": "T2, human GLP-1 receptor", "assay": "cell-based or functional assay", "remark": "listed apart in the source"}, "[5]": {"biological_target": "T1, human glucagon receptor", "assay": "cell-based or functional assay", "remark": "listed apart in the source"}, "[6]": {"biological_target": "T1, human glucagon receptor", "assay": "cell-based or functional assay", "remark": "listed apart in the source"}, "[7]": {"biological_target": "T1, human glucagon receptor", "assay": "SPA competition vs 125I-glucagon, receptor membranes"}, "[8]": {"biological_target": "T1, human glucagon receptor", "assay": "SPA competition vs 125I-glucagon, receptor membranes", "remark": "listed apart in the source"}, "[9]": {"biological_target": "T1, human glucagon receptor", "assay": "cell-based or functional assay", "remark": "listed apart in the source"}, "[10]": {"biological_target": "T2, human GLP-1 receptor", "assay": "cell-based or functional assay", "remark": "listed apart in the source"}},
  "note": "Like-named read-outs stand apart in the source and are kept apart here. Numbered stars: 1 amine (or outer) side, 2 acyl side, 3 side chain; on linkers, the order of the positions; unused ones are H or OH. Bridge positions count the residues as written; N and C are the ends. Square brackets hold non-standard residues; d marks the D form. Primed or numbered codes have the meaning given here. Side chains are listed from the residue outwards. Ends that are not written are not given here. CSA‑2 = Cys(S-CH2CH2COOH), S-(2-carboxyethyl)-L-cysteine, O=C([C@H](CSCCC(=O)[*:3])N[*:1])[*:2]; CSA‑1 = Cys(S-CH2COOH), S-carboxymethyl-L-cysteine, O=C([C@H](CSCC(=O)[*:3])N[*:1])[*:2]; Glu = Glu spacer between Lys side chain and the C16 fatty acid (EC16FA); PEG 20 kDa″ = 20 kDa polyethylene glycol (PEG); PEG 20 kDa = 20 kDa polyethylene glycol; PhLac = O=C(O)[C@@H](O)Cc1ccccc1; Aad = N[C@@H](CCCC(=O)O)C(=O)O; Mpa = O=C(O)CCS",
  "data": [
    {"binder": "[PhLac]TSDYSKYLDERRAQDFVC(PEG 20 kDa)WLMDT-NH2 (lactam 7-11)", "note": "[[PLA6, K12E16(lactam), C24(20 kDa), D28]G(6-29)]", "values": [
      {"measurement": "Glucagon antagonism IC50 (inhibit 0.2-0.8 nM glucagon)", "setting": "[1]", "result": 628, "unit": "nM"},
      {"measurement": "GLP-1 agonism EC50", "setting": "[2]", "result": "550 to 753", "unit": "nM"}
    ]},
    {"binder": "[PhLac]TSDYSKYLDERRAKDFVQWLMDK([Glu-C16 fatty acid])-NH2 (lactam 11-15)", "note": "[[PLA6, E16K20(lactam), D28, K29(EC16FA)]G(6-29)]", "values": [
      {"measurement": "Glucagon antagonism IC50 (inhibit 0.4 nM glucagon)", "setting": "[3]", "result": 386, "unit": "nM"},
      {"measurement": "GLP-1 agonism EC50", "setting": "[4]", "result": 1410, "unit": "nM"}
    ]},
    {"binder": "FTS[CSA‑1]YSKYLDSRRAQDFVQWLMNT-NH2 (N-terminus assumed; SMILES CSCC[C@H](NC(=O)[C@H](CC(C)C)NC(=O)[C@H](Cc1c[nH]c2ccccc12)NC(=O)[C@H](CCC(N)=O)NC(=O)[C@@H](NC(=O)[C@H](Cc1ccccc1)NC(=O)[C@H](CC(=O)O)NC(=O)[C@H](CCC(N)=O)NC(=O)[C@H](C)NC(=O)[C@H](CCCNC(=N)N)NC(=O)[C@H](CCCNC(=N)N)NC(=O)[C@H](CO)NC(=O)[C@H](CC(=O)O)NC(=O)[C@H](CC(C)C)NC(=O)[C@H](Cc1ccc(O)cc1)NC(=O)[C@H](CCCCN)NC(=O)[C@H](CO)NC(=O)[C@H](Cc1ccc(O)cc1)NC(=O)[C@H](CSCC(=O)O)NC(=O)[C@H](CO)NC(=O)[C@@H](NC(=O)[C@@H](N)Cc1ccccc1)[C@@H](C)O)C(C)C)C(=O)N[C@@H](CC(N)=O)C(=O)N[C@H](C(N)=O)[C@@H](C)O, also called [C^9(SCH2COOH)]Glucagon(aa6-29)-NH2; peptide no; 13)", "note": "[[(CSA-1)^9]Glucagon(aa6-29)-NH2]", "values": [
      {"measurement": "cAMP (I/A)50 inhibition index", "setting": "[5]", "result": 506},
      {"measurement": "cAMP pA2", "setting": "[5]", "result": 6.68},
      {"measurement": "cAMP IC50", "setting": "[6]", "result": 101, "unit": "nM"},
      {"measurement": "cAMP pA2", "setting": "[6]", "result": 6.68},
      {"measurement": "IC50", "setting": "[7]", "result": 107, "unit": "nM"},
      {"measurement": "IC50", "setting": "[8]", "result": 107, "unit": "nM"}
    ]},
    {"binder": "[PhLac]TSDYSKYLDERRAKDFVK([Glu-C16 fatty acid])WLMDT-NH2 (lactam 11-15)", "note": "[[PLA6, E16K20(lactam), K24(EC16FA), D28]G(6-29)]", "values": [
      {"measurement": "Glucagon antagonism IC50 (inhibit 0.4 nM glucagon)", "setting": "[3]", "result": 372, "unit": "nM"},
      {"measurement": "GLP-1 agonism EC50", "setting": "[4]", "result": 293, "unit": "nM"}
    ]},
    {"binder": "AEGTFTSEYSKYLDEQAAKEFIAWLMDT-NH2 (lactam 15-19; N-terminus assumed; SMILES CC[C@H](C)[C@H](NC(=O)[C@H](Cc1ccccc1)NC(=O)[C@H](CCC(=O)O)NC(=O)[C@@H]1CCCCNC(=O)CC[C@H](NC(=O)[C@H](CC(=O)O)NC(=O)[C@H](CC(C)C)NC(=O)[C@H](Cc2ccc(O)cc2)NC(=O)[C@H](CCCCN)NC(=O)[C@H](CO)NC(=O)[C@H](Cc2ccc(O)cc2)NC(=O)[C@H](CCC(=O)O)NC(=O)[C@H](CO)NC(=O)[C@@H](NC(=O)[C@H](Cc2ccccc2)NC(=O)[C@@H](NC(=O)CNC(=O)[C@H](CCC(=O)O)NC(=O)[C@H](C)N)[C@@H](C)O)[C@@H](C)O)C(=O)N[C@@H](CCC(N)=O)C(=O)N[C@@H](C)C(=O)N[C@@H](C)C(=O)N1)C(=O)N[C@@H](C)C(=O)N[C@@H](Cc1c[nH]c2ccccc12)C(=O)N[C@@H](CC(C)C)C(=O)N[C@@H](CCSC)C(=O)N[C@@H](CC(=O)O)C(=O)N[C@H](C(N)=O)[C@@H](C)O)", "note": "[[A2E3, E9, E16K20(Lactam), GLP(23-32)]G(2-29)]", "values": [
      {"measurement": "Glucagon antagonism IC50 (inhibit 0.2-0.8 nM glucagon)", "setting": "[9]", "result": 423, "unit": "nM"},
      {"measurement": "GLP-1 agonism EC50", "setting": "[10]", "result": 9.8, "unit": "nM"}
    ]},
    {"binder": "FTS[Aad]YSKYLDSRRAQDFVQWLMNT-NH2 (N-terminus assumed; SMILES CSCC[C@H](NC(=O)[C@H](CC(C)C)NC(=O)[C@H](Cc1c[nH]c2ccccc12)NC(=O)[C@H](CCC(N)=O)NC(=O)[C@@H](NC(=O)[C@H](Cc1ccccc1)NC(=O)[C@H](CC(=O)O)NC(=O)[C@H](CCC(N)=O)NC(=O)[C@H](C)NC(=O)[C@H](CCCNC(=N)N)NC(=O)[C@H](CCCNC(=N)N)NC(=O)[C@H](CO)NC(=O)[C@H](CC(=O)O)NC(=O)[C@H](CC(C)C)NC(=O)[C@H](Cc1ccc(O)cc1)NC(=O)[C@H](CCCCN)NC(=O)[C@H](CO)NC(=O)[C@H](Cc1ccc(O)cc1)NC(=O)[C@H](CCCC(=O)O)NC(=O)[C@H](CO)NC(=O)[C@@H](NC(=O)[C@@H](N)Cc1ccccc1)[C@@H](C)O)C(C)C)C(=O)N[C@@H](CC(N)=O)C(=O)N[C@H](C(N)=O)[C@@H](C)O, also called [hE^9]Glucagon(aa6-29)-NH2; peptide no; 12)", "note": "[[hGlu^9]Glucagon(aa6-29)-NH2]", "values": [
      {"measurement": "cAMP (I/A)50 inhibition index", "setting": "[5]", "result": 2360},
      {"measurement": "cAMP pA2", "setting": "[5]", "result": 6.27},
      {"measurement": "cAMP IC50", "setting": "[6]", "result": 472, "unit": "nM"},
      {"measurement": "cAMP pA2", "setting": "[6]", "result": 6.27},
      {"measurement": "IC50", "setting": "[7]", "result": 163, "unit": "nM"},
      {"measurement": "IC50", "setting": "[8]", "result": 163, "unit": "nM"}
    ]},
    {"binder": "HAEGTFTSEYSKYLDEQAAKEFIAWLMDT-NH2 (lactam 16-20; N-terminus assumed; SMILES CC[C@H](C)[C@H](NC(=O)[C@H](Cc1ccccc1)NC(=O)[C@H](CCC(=O)O)NC(=O)[C@@H]1CCCCNC(=O)CC[C@H](NC(=O)[C@H](CC(=O)O)NC(=O)[C@H](CC(C)C)NC(=O)[C@H](Cc2ccc(O)cc2)NC(=O)[C@H](CCCCN)NC(=O)[C@H](CO)NC(=O)[C@H](Cc2ccc(O)cc2)NC(=O)[C@H](CCC(=O)O)NC(=O)[C@H](CO)NC(=O)[C@@H](NC(=O)[C@H](Cc2ccccc2)NC(=O)[C@@H](NC(=O)CNC(=O)[C@H](CCC(=O)O)NC(=O)[C@H](C)NC(=O)[C@@H](N)Cc2c[nH]cn2)[C@@H](C)O)[C@@H](C)O)C(=O)N[C@@H](CCC(N)=O)C(=O)N[C@@H](C)C(=O)N[C@@H](C)C(=O)N1)C(=O)N[C@@H](C)C(=O)N[C@@H](Cc1c[nH]c2ccccc12)C(=O)N[C@@H](CC(C)C)C(=O)N[C@@H](CCSC)C(=O)N[C@@H](CC(=O)O)C(=O)N[C@H](C(N)=O)[C@@H](C)O)", "note": "[[H1A2E3, E9, E16K20(Lactam), GLP(23-32)]G(1-29)]", "values": [
      {"measurement": "Glucagon antagonism IC50 (inhibit 0.2-0.8 nM glucagon)", "setting": "[9]", "result": 2150, "unit": "nM"},
      {"measurement": "GLP-1 agonism EC50", "setting": "[10]", "result": 0.017, "unit": "nM"}
    ]},
    {"binder": "FTS[CSA‑2]YSKYLDSRRAQDFVQWLMNT-NH2 (N-terminus assumed; SMILES CSCC[C@H](NC(=O)[C@H](CC(C)C)NC(=O)[C@H](Cc1c[nH]c2ccccc12)NC(=O)[C@H](CCC(N)=O)NC(=O)[C@@H](NC(=O)[C@H](Cc1ccccc1)NC(=O)[C@H](CC(=O)O)NC(=O)[C@H](CCC(N)=O)NC(=O)[C@H](C)NC(=O)[C@H](CCCNC(=N)N)NC(=O)[C@H](CCCNC(=N)N)NC(=O)[C@H](CO)NC(=O)[C@H](CC(=O)O)NC(=O)[C@H](CC(C)C)NC(=O)[C@H](Cc1ccc(O)cc1)NC(=O)[C@H](CCCCN)NC(=O)[C@H](CO)NC(=O)[C@H](Cc1ccc(O)cc1)NC(=O)[C@H](CSCCC(=O)O)NC(=O)[C@H](CO)NC(=O)[C@@H](NC(=O)[C@@H](N)Cc1ccccc1)[C@@H](C)O)C(C)C)C(=O)N[C@@H](CC(N)=O)C(=O)N[C@H](C(N)=O)[C@@H](C)O, also called [C^9(SCH2CH2COOH)]Glucagon (aa6-29)-NH2; peptide no; 14)", "note": "[[(CSA-2)^9]Glucagon(aa6-29)-NH2]", "values": [
      {"measurement": "cAMP (I/A)50 inhibition index", "setting": "[5]", "result": 580},
      {"measurement": "cAMP pA2", "setting": "[5]", "result": 6.64},
      {"measurement": "cAMP IC50", "setting": "[6]", "result": 116, "unit": "nM"},
      {"measurement": "cAMP pA2", "setting": "[6]", "result": 6.64},
      {"measurement": "IC50", "setting": "[7]", "result": 146, "unit": "nM"},
      {"measurement": "IC50", "setting": "[8]", "result": 146, "unit": "nM"}
    ]},
    {"binder": "[PhLac]TSDYSKYLDERRAK([Glu-C16 fatty acid])DFVQWLMDT-NH2", "note": "[[PLA6, E16, K20(EC16FA), D28]G(6-29)]", "values": [
      {"measurement": "Glucagon antagonism IC50 (inhibit 0.4 nM glucagon)", "setting": "[3]", "result": 576, "unit": "nM"},
      {"measurement": "GLP-1 agonism EC50", "setting": "[4]", "result": 1290, "unit": "nM"}
    ]},
    {"binder": "[PhLac]TSDYSKYLDERRAKDFVK([Mpa-PEG 20 kDa″])WLMDT-NH2 (lactam 11-15)", "note": "[[PLA6, E16K20(Lactam), K24(COCH2CH2S-20 kDa)] G(6-29)]", "values": [
      {"measurement": "Glucagon antagonism IC50 (inhibit 0.2-0.8 nM glucagon)", "setting": "[1]", "result": "300 to 400", "unit": "nM"},
      {"measurement": "GLP-1 agonism EC50", "setting": "[2]", "result": "16 to 20", "unit": "nM"}
    ]}
  ]
}
